Measured values reported in article PMC9734137 (2022).
Like-named read-outs stand apart in the source and are kept apart here.

Key:
WT SARS2 RBD [1] = molecular target: T1, WT SARS2 RBD (SARS-CoV-2, UniProt P0DTC2 321-591); assay: SPR
SARS1 RBD [2] = molecular target: SARS1 RBD (SARS-CoV-1); assay: SPR
WT SARS2 RBD [3] = molecular target: T1, WT SARS2 RBD; assay: SPR; remark: listed apart in the source
SARS1 RBD [4] = molecular target: SARS1 RBD (SARS-CoV-1); assay: SPR; remark: listed apart in the source
WT SARS2 RBD [5] = molecular target: T1, WT SARS2 RBD; assay: ELISA

B1: aSA3 (VHH)
VHH: QVQLVESGGGLVQPGGSLRLSCAASGFTSDHYALAWFRQAPGKEREGVSCIDSDGNPFYADSVKGRFTGSRDNAKNTVYLQMNSLKLEDTAVYYCAAGLWYGRSLNSFDYDYWGQGTQVTVSS
Q: With B1 as the binder, how does the koff (WT SARS2 RBD [1]) read?
A: 9.77e-05 s⁻¹

Q: And the koff (SARS1 RBD [2])?
A: 0.000364 s⁻¹

B2: aSA3-Fc (Fc fusion)
chain: QVQLVESGGGLVQPGGSLRLSCAASGFTSDHYALAWFRQAPGKEREGVSCIDSDGNPFYADSVKGRFTGSRDNAKNTVYLQMNSLKLEDTAVYYCAAGLWYGRSLNSFDYDYWGQGTQVTVSS
Q: For B2, which koff (WT SARS2 RBD [3]) is on record?
A: 1.44e-05 s⁻¹

Q: What about the koff (SARS1 RBD [4]) of the same binder?
A: 8.26e-05 s⁻¹

Q: And the EC50 (WT SARS2 RBD [5])?
A: 0.74 nM
